The assay has as its target CD2. The assay can be described thus: flow cytometry on primary human T cells at day 5; CD2 detected with the competing clone RPA-2.10. (In general: Flow cytometry measures light scatter and fluorescence of single cells or particles in a stream.)

Chain of CD2 (receptor chain, as listed by the source limits assumed, form in doubt): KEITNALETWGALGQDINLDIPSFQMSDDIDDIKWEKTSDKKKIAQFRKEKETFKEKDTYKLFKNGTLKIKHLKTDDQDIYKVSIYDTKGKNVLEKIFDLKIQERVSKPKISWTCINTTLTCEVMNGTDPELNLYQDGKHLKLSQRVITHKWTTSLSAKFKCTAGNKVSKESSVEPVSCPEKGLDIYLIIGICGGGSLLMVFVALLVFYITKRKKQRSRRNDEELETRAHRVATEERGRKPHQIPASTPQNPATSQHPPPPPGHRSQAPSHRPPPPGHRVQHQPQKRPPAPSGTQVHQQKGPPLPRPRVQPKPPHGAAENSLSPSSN

In turn, CD2 RPA naked (antibody) yielded an IC50 (read off the curve) of 0.08 nM.

Source of the values: patent publication US20260078148A1.
